From patent US20180057553A1 (UNIVERSITY OF TOKYO, published 2018)

What was measured:
[1] = target: T1, recombinant human TNF-alpha (Life Technologies) (human, UniProt P01375 77-233); experiment: Biacore SPR: conjugate fixed to the sensor chip via an amino group, recombinant human TNF-alpha as analyte at 0.78-100 nM
Source text: (§1) Recombinant human TNF-alpha (Life Technologies) was used as TNF-alpha.

[2] = target: T1, recombinant human TNF-alpha (Life …); experiment: depletion assay: serially diluted conjugate mixed with human TNF-alpha (100% = 6.2 ng/mL), complex adsorbed on diol Sepharose beads, TNF-alpha remaining in the supernatant measured by ELISA; 2nd experiment
Description: (§2) The complex of TNF-alpha and the conjugate were then adsorbed using 3 microliters of diol Sepharose beads. Subsequently, TNF-alpha in the supernatant was measured by ELISA, and the percentage of the remaining TNF-alpha was calculated. Experiments were done twice, independently.

[3] = target: T1, recombinant human TNF-alpha (Life …); experiment: depletion assay: serially diluted conjugate mixed with human TNF-alpha (100% = 6.2 ng/mL), complex adsorbed on diol Sepharose beads, TNF-alpha remaining in the supernatant measured by ELISA; 1st experiment
Description: as §2

[4] = target: T1, recombinant human TNF-alpha (Life …); experiment: SPR (Biacore), conjugate amine-coupled to chip, TNF-alpha as analyte
Source text: as §1

T1 sequence (P01375 77-233 limits assumed): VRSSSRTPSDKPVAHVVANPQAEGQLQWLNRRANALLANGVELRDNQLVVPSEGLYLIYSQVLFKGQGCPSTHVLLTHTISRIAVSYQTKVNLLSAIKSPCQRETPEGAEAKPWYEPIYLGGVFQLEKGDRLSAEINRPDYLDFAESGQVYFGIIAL

B1: conjugate of the extracellular region of human TNF receptor 2 (TNFR2) and mutant recombinant human intelectin-1 (S165A) (receptor)
chain: LPAQVAFTPYAPEPGSTCRLREYYDQTAQMCCSKCSPGQHAKVFCTKTSDTVCDSCEDSTYTQLWNWVPECLSCGSRCSSDQVETQACTREQNRICTCRPGWYCALSKQEGCRLCAPLRKCRPGFGVARPGTETSDVVCKPCAPGTFSNTTSSTDICRPHQICNVVAIPGNASMDAVCTSTSPTRSMAPGAVHLPQPVSTRSQHTQPTPEPSTAPSTSFLLPMGPSPPAEGSTGDGTDEANTYFKEWTCSSSPSLPRSCKEIKDECPSAFDGLYFLRTENGVIYQTFCDMTSGGGGWTLVASVHENDMRGKCTVGDRWSSQQGSKADYPEGDGNWANYNTFGSAEAATSDDYKNPGYYDIQAKDLGIWHVPNKSPMQHWRNSALLRYRTDTGFLQTLGHNLFGIYQKYPVKYGEGKCWTDNGPVIPVVYDFGDAQKTASYYSPYGQREFTAGFVQFRVFNNERAANALCAGMRVTGCNTEHHCIGGGGYFPEASPQQCGDFSGFDWSGYGTHVGYSSSREITEAAVLLFYR
notes: also called conjugate of TNFR2 and intelectin
koff [1]: 0.000536 s⁻¹
EC50 (read off the curve) [2]: ~0.3 µg/mL
EC50 (read off the curve) [3]: ~0.3 µg/mL
Kd [4]: 0.468 nM
kon [4]: 1.14e+06 M⁻¹ s⁻¹
